Here are results for 16 molecules from patent US20250002543A1.

B1: FpL_C3KX 7d (designed binder)
chain: ETPGESAEEVTIRVNLIFADGRIQTAEFIGTFEEATAEAYAYANLLARDYGDFTADLEDGGYTINIRFAGHHHHHH
B2: FpL_C3KX 7d_N50M (designed binder)
chain: ETPGESAEEVTIRVNLIFADGRIQTAEFIGTFEEATAEAYAYANLLARDMGDFTADLEDGGYTINIRFAGHHHHHH
B3: FpL_C3KX 7d_K38H (designed binder)
chain: ETPGESAEEVTIRVNLIFADGRIQTAEFIGTFEEATAHAYAYANLLARDYGDFTADLEDGGYTINIRFAGHHHHHH
B4: FpL_C3KX 7d_I23L (designed binder)
chain: ETPGESAEEVTIRVNLIFADGRLQTAEFIGTFEEATAEAYAYANLLARDYGDFTADLEDGGYTINIRFAGHHHHHH
B5: FpL_C3KX 7d_I23F (designed binder)
chain: ETPGESAEEVTIRVNLIFADGRFQTAEFIGTFEEATAEAYAYANLLARDYGDFTADLEDGGYTINIRFAGHHHHHH
B6: FpL_C3KX 7d_E52Y (designed binder)
chain: ETPGESAEEVTIRVNLIFADGRIQTAEFIGTFEEATAEAYAYANLLARDYGYFTADLEDGGYTINIRFAGHHHHHH
B7: FpL_C3KX 7d_N44R (designed binder)
chain: ETPGESAEEVTIRVNLIFADGRIQTAEFIGTFEEATAEAYAYARLLARDYGDFTADLEDGGYTINIRFAGHHHHHH
B8: FpL_C3KX 7d_E8G (designed binder)
chain: ETPGESAGEVTIRVNLIFADGRIQTAEFIGTFEEATAEAYAYANLLARDYGDFTADLEDGGYTINIRFAGHHHHHH
B9: FpL_C3KX 7d_E8R (designed binder)
chain: ETPGESAREVTIRVNLIFADGRIQTAEFIGTFEEATAEAYAYANLLARDYGDFTADLEDGGYTINIRFAGHHHHHH
B10: FpL_C3KX 7d_Y53S (designed binder)
chain: ETPGESAEEVTIRVNLIFADGRIQTAEFIGTFEEATAEAYAYANLLARDYGDSTADLEDGGYTINIRFAGHHHHHH
B11: FpL_C3KX 7d_E33V (designed binder)
chain: ETPGESAEEVTIRVNLIFADGRIQTAEFIGTFVEATAEAYAYANLLARDYGDFTADLEDGGYTINIRFAGHHHHHH
B12: FpL_C3KX 7d_P6A (designed binder)
chain: ETPGEAAEEVTIRVNLIFADGRIQTAEFIGTFEEATAEAYAYANLLARDYGDFTADLEDGGYTINIRFAGHHHHHH
B13: FpL_C3KX 7d_G21R (designed binder)
chain: ETPGESAEEVTIRVNLIFADRRIQTAEFIGTFEEATAEAYAYANLLARDYGDFTADLEDGGYTINIRFAGHHHHHH
B14: FpL_C3KX 7d_K38L (designed binder)
chain: ETPGESAEEVTIRVNLIFADGRIQTAEFIGTFEEATALAYAYANLLARDYGDFTADLEDGGYTINIRFAGHHHHHH
B15: FpL_C3KX 7d_N44H (designed binder)
chain: ETPGESAEEVTIRVNLIFADGRIQTAEFIGTFEEATAEAYAYAHLLARDYGDFTADLEDGGYTINIRFAGHHHHHH
B16: FpL_C3KX 7d_K48H (designed binder)
chain: ETPGESAEEVTIRVNLIFADGRIQTAEFIGTFEEATAEAYAYANLLAHDYGDFTADLEDGGYTINIRFAGHHHHHH

For this assay, the target named is human antibody (gamma globulin preparation, manufactured by The Chemo-Sero-Therapeutic Research Institute) (human). Description: ELISA; human gamma globulin immobilised; acid treatment 50 mM buffer pH 3.0, 25 C, 15 min; elution rate = 1 - remaining binding activity.
B1 displayed an Elution rate [%] of 78%.

B2: the Elution rate [%] came to 86%.

In turn, B3 showed an Elution rate [%] of 86%.

As to B4, the Elution rate [%] came out at 82%.

B5 displayed an Elution rate [%] of 81%.

B6 gave an Elution rate [%] of 85%.

With B7, the Elution rate [%] turned out to be 82%.

In turn, B8 displayed an Elution rate [%] of 80%.

The molecule B9 showed an Elution rate [%] of 82%.

Molecule B10 came in with an Elution rate [%] of 83%.

With B11, the Elution rate [%] turned out to be 86%.

B12 displayed an Elution rate [%] of 82%.

In the case of B13, the Elution rate [%] was determined as 82%.

As to B14, the Elution rate [%] came to 88%.

Take B15: the Elution rate [%] was 82%.

For B16, the Elution rate [%] worked out at 85%.
